Assay results published in patent publication US20140366224A1 (CONSEJO SUPERIOR DE INVESTIGACIONES CIENTIFICAS, published 2014).
Where a chain is given by its changes, count along the chain named. Names and notes keep the numbering of the source.

T1: IYO fused to split YFP (nYFP or cYFP) (Arabidopsis thaliana, UniProt Q8GYU3 1-1465)
T1 construct: BiFC construct expressed in Nicotiana benthamiana leaf epidermal cells; The position of the YFP half varied between combinations, so the order of the parts is not fixed; also called split YFP fused to IYO; not shown: nYFP or cYFP half of split YFP, fused at the N- or C-terminus (different combinations were used)
T1 sequence: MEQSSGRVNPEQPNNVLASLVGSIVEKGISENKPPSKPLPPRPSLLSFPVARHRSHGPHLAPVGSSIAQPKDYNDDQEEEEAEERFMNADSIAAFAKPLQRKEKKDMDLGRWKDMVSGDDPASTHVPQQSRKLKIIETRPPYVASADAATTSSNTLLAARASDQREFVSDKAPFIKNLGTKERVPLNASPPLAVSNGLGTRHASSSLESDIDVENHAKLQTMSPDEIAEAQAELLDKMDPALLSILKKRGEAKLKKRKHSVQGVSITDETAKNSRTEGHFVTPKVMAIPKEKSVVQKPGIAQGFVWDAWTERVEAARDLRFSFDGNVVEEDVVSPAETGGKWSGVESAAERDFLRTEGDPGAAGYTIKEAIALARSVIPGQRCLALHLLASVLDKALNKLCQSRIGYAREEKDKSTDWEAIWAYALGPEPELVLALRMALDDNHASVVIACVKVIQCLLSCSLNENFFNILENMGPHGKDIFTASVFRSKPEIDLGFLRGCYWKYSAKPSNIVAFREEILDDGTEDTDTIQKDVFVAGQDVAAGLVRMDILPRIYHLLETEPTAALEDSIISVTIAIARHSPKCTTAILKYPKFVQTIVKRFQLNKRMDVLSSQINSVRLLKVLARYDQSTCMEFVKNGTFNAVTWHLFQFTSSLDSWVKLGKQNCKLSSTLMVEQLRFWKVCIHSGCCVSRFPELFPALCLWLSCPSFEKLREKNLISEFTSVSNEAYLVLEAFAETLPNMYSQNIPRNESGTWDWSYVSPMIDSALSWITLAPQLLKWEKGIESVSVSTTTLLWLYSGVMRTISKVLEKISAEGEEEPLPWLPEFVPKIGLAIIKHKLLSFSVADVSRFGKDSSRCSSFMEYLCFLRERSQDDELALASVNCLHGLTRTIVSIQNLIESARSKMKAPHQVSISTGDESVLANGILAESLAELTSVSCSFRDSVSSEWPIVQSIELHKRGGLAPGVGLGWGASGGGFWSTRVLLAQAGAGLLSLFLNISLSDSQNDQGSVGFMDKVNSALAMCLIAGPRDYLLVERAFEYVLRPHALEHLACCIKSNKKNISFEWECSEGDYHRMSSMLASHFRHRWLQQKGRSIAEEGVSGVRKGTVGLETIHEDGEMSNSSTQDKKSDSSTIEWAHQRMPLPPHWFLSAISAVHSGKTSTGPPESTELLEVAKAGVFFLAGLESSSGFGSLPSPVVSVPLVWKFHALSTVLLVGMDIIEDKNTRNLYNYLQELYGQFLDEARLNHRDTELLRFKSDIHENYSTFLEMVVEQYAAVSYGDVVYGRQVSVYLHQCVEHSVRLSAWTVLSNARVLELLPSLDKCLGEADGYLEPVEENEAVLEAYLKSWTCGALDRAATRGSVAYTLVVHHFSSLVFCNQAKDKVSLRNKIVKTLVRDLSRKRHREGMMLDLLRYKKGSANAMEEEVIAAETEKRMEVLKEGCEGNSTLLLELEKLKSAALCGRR

B1: AtRTR1 (At5g26760) full-length, fused to split YFP (nYFP or cYFP) (other)
chain: MAKDNEAIAINDAVHKLQLYMLENTTDQNQLFAARKLMSRSDYEDVVTERAIAKLCGYTLCQRFLPSDVSRRGKYRISLKDHKVYDLQETSKFCSAGCLIDSKTFSGSLQEARTLEFDSVKLNEILDLFGDSLEVKGSLDVNKDLDLSKLMIKENFGVRGEELSLEKWMGPSNAVEGYVPFDRSKSSNDSKATTQSNQEKHEMDFTSTVIMPDVNSVSKLPPQTKQASTVVESVDGKGKTVLKEQTVVPPTKKVSRFRREKEKEKKTFGVDGMGCAQEKTTVLPRKILSFCNEIEKDFKNFGFDEMGLASSAMMSDGYGVEYSVSKQPQCSMEDSLSCKLKGDLQTLDGKNTLSGSSSGSNTKGSKTKPEKSRKKIISVEYHANSYEDGEEILAAESYERHKAQDVCSSSEIVTKSCLKISGSKKLSRSVTWADQNDGRGDLCEVRNNDNAAGPSLSSNDIEDVNSLSRLALAEALATALSQAAEAVSSGNSDASDATAKAGIILLPSTHQLDEEVTEEHSEEEMTEEEPTLLKWPNKPGIPDSDLFDRDQSWFDGPPEGFNLTLSNFAVMWDSLFGWVSSSSLAYIYGKEESAHEEFLLVNGKEYPRRIIMVDGLSSEIKQTIAGCLARALPRVVTHLRLPIAISELEKGLGSLLETMSLTGAVPSFRVKEWLVIVLLFLDALSVSRIPRIAPYISNRDKILEGSGIGNEEYETMKDILLPLGRVPQFATRSGA
notes: Wild-type full-length AtRTR1 in BiFC in Nicotiana benthamiana leaves; The position of the YFP half varied; also called split YFP fused to AtRTR1; not shown: nYFP or cYFP half of split YFP, fused at the N- or C-terminus (different combinations were used)
B2: full-length AtRTR1 C56A/C61A (other, not shown: large carriers)
chain: B1 chain with C56A, C61A
notes: The putative zinc-coordinating cysteines are substituted by alanine
B3: full-length AtRTR1 C94A/C98A (other, not shown: large carriers)
chain: B1 chain with C94A, C98A
notes: as for B2
B4: C-terminal half of AtRTR1 (aa 305-735) (other, not shown: large carriers)
chain: EMGLASSAMMSDGYGVEYSVSKQPQCSMEDSLSCKLKGDLQTLDGKNTLSGSSSGSNTKGSKTKPEKSRKKIISVEYHANSYEDGEEILAAESYERHKAQDVCSSSEIVTKSCLKISGSKKLSRSVTWADQNDGRGDLCEVRNNDNAAGPSLSSNDIEDVNSLSRLALAEALATALSQAAEAVSSGNSDASDATAKAGIILLPSTHQLDEEVTEEHSEEEMTEEEPTLLKWPNKPGIPDSDLFDRDQSWFDGPPEGFNLTLSNFAVMWDSLFGWVSSSSLAYIYGKEESAHEEFLLVNGKEYPRRIIMVDGLSSEIKQTIAGCLARALPRVVTHLRLPIAISELEKGLGSLLETMSLTGAVPSFRVKEWLVIVLLFLDALSVSRIPRIAPYISNRDKILEGSGIGNEEYETMKDILLPLGRVPQFATRSGA
notes: also called truncated C-terminal half of AtRTR1; C-terminal half of RTR1

Legend:
[1] = target: T1, IYO fused to split YFP (nYFP or cYFP); assay: BiFC, split YFP in Nicotiana benthamiana leaves
Text: Although the bulk of AtRTR1 is present in the cytosol, we found high levels of nuclear fluorescence reconstitution when split YFP fused to IYO and AtRTR1 was expressed in Nicotiana benthamiana leaves (FIGS. 12-14). This confirms that IYO and AtRTR1 interact physically, and that they do so in the nucleus. […] To test this, Applicants analyzed the subcellular distribution of AtRTR1 in the presence or absence of co-expressed IYO. These experiments confirmed that co-expressed IYO increases the accumulation of AtRTR1 in the nucleus.
(§1) Applicants tested for the in vivo interaction between IYO and AtRTR1 through a bimolecular fluorescence complementation assay in epidermal cells from Nicotiana benthamiana leaves.

[2] = target: T1, IYO fused to split YFP (nYFP or cYFP); assay: BiFC (split YFP) in Nicotiana benthamiana leaf cells
Text: as §1

[3] = target: T1, IYO fused to split YFP (nYFP or cYFP); assay: BiFC context, truncated AtRTR1
Text: as §1

| Binder | binding result [2] | also measured |
| --- | --- | --- |
| B1 | – | binding result [1]: binds |
| B2 | no binding | – |
| B3 | no binding | – |
| B4 | – | binding result [3]: binds |
